Experimental findings from article PMC5626478, “LARP4 mRNA codon-tRNA match contributes to LARP4 activity for ribosomal protein mRNA poly(A) tail length protection” are described below.

The target in this data set is LARP4-NTD (1-286) (human, UniProt Q71RC2 1-286). As to the kind of experiment: EMSA; EMSA as described in Yang et al. 2011; buffer, salt, pH and temperature not given; protein in uM. The note with it: protein: recombinant.
LARP4-NTD (1-286), sequence (Q71RC2 1-286): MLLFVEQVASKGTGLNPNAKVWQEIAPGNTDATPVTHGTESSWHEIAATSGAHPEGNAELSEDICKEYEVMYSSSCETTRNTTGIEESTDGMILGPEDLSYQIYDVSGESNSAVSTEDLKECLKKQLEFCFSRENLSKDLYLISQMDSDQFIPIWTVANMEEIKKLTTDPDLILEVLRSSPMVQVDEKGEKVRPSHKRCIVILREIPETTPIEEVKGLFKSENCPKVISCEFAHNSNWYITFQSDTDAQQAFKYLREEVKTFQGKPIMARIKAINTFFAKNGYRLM

As to AAAAAAAAAAAAAAA (ssRNA) [A15 3'-OH], the binding result is given as “binds”.
